Experimental findings from patent US20060183702A1 are described below.

This test deals with IIbIIIa receptor on human platelets (human) (UniProt P08514).
Chain of UniProt P08514 (P08514 32-1039, chain 1 of 2): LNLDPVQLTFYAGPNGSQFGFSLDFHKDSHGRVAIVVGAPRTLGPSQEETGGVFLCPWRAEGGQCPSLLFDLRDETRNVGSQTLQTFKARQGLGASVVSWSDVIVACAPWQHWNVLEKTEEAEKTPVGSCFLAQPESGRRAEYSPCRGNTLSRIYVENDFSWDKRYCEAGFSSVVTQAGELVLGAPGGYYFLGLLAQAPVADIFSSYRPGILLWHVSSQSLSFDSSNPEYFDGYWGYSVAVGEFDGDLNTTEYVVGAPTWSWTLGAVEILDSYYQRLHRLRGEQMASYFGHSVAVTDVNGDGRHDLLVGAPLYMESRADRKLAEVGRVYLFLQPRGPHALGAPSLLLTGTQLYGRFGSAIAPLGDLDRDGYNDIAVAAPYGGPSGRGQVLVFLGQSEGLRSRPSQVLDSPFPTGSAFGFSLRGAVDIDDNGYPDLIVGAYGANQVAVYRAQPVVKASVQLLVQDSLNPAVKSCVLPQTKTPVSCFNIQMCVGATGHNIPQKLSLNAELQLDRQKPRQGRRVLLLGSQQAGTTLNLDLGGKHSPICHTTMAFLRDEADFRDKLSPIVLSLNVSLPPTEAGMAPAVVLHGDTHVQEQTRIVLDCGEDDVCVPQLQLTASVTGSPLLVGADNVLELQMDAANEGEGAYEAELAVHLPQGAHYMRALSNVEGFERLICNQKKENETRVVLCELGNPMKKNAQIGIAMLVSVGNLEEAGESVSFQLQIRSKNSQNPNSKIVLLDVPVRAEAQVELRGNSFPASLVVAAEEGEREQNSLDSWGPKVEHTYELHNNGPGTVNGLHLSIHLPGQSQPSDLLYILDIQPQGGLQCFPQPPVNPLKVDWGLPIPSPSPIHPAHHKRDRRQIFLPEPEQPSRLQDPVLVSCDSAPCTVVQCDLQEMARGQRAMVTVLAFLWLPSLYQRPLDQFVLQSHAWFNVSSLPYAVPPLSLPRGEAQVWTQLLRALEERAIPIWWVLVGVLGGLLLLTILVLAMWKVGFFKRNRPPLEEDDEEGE
Chain of UniProt P08514 (P05106 27-788, chain 2 of 2, further chain): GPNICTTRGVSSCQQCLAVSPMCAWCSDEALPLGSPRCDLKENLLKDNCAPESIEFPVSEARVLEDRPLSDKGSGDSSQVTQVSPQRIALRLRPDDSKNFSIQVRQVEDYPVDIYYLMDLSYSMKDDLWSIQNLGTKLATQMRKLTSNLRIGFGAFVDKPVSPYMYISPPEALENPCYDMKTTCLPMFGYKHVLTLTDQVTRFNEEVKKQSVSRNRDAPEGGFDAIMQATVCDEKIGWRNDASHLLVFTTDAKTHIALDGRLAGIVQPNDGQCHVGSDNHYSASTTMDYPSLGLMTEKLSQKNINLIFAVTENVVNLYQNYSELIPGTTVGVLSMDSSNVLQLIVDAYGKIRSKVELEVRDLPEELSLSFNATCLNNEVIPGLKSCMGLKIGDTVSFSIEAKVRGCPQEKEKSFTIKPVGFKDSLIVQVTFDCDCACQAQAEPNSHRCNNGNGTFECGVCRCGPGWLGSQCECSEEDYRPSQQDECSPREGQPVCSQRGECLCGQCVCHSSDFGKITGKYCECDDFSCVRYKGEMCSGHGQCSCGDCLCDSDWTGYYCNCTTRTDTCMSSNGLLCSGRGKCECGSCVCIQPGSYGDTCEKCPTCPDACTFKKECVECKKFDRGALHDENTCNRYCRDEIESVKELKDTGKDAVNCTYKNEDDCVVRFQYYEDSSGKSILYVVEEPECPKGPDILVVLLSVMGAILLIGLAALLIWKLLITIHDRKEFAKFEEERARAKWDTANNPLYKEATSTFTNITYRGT

Integrilin (peptide): the IC50 (read off the curve), ADP-induced platelet aggregation (AIPA) in human PRP worked out at 200 nM.
